Laboratory results taken from FireProtDB (doi:10.1002/pro.5560031114).
“And” between values parts separate entries of the source, which are not always exact repeats. Identical values can stand only once.

Conditions: Escherichia coli, pH 7, Thermal, DSC, Na phosphate 100 mM, NaCl 200 mM, reversible: yes, whole UniProt chain shown

B1: Regulatory protein rop wild type, P03051 (protein)
chain: MTKQEKTALNMARFIRSQTLTLLEKLNELDADEQADICESLHDHADELYRSCLARFGDDGENL
74.6 °C
  unfolding free energy: 3.1 kcal/mol and 5.6 kcal/mol
  unfolding enthalpy (calorimetric): 114 kcal/mol and 83.1 kcal/mol and 94.3 kcal/mol
  unfolding enthalpy (van 't Hoff): 132 kcal/mol and 79.8 kcal/mol and 104 kcal/mol
